What was measured:
[1] = biological target: T1, native CIRL of rat brain (calcium-independent α-latrotoxin binding sites in rat brain membranes); affinity … (rat, UniProt O88917 22-1515)
T1 sequence: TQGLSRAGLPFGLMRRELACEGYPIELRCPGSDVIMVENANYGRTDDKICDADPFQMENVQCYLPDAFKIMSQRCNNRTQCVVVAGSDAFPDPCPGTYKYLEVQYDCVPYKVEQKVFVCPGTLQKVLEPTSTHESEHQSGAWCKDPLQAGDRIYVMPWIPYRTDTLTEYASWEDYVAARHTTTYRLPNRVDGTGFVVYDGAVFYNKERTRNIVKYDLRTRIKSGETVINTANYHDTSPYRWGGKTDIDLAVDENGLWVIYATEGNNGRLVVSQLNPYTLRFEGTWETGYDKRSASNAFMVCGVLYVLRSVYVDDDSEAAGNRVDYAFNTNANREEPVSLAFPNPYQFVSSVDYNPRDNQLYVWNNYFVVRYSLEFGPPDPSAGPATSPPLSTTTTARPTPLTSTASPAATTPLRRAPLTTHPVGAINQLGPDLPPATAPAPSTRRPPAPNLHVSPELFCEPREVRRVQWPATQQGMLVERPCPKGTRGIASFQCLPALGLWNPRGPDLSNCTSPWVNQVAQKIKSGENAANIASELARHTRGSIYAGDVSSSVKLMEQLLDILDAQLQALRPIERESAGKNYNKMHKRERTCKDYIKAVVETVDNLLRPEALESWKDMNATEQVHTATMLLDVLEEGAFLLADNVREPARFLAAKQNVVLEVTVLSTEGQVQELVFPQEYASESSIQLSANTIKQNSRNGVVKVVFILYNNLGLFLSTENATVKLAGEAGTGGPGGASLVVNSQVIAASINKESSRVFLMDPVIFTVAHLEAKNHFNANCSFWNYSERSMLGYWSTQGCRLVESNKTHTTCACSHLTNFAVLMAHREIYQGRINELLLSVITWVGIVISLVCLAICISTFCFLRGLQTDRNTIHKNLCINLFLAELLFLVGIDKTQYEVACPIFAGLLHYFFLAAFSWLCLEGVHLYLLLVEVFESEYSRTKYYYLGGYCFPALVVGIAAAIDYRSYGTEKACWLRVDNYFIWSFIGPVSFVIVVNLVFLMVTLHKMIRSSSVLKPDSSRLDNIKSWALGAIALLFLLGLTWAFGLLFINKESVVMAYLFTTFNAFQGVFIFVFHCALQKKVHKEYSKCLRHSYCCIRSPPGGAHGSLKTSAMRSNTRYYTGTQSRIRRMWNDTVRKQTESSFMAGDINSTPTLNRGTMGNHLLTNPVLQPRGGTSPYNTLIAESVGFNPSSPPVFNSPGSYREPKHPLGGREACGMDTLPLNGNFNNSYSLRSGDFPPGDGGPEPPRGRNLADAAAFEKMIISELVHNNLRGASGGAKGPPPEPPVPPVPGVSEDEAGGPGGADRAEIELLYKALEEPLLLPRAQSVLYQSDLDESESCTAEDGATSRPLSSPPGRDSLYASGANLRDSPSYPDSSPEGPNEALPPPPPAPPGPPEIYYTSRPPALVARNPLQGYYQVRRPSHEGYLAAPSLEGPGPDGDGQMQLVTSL

[2] = biological target: T2, recombinant CIRL (calcium-independent receptor of α-latrotoxin), full-length, expressed in COS cells (rat, UniProt O88917 22-1515)
T2 sequence: T1 sequence

B1: α-latrotoxin (ligand)
chain: EGEDLTLEEKAEICSELELQQKYVDIASNIIGDLSSLPIAGKIAGTIAAAAMTATHVASGRLDIEQTLLGCSDLPFDQIKEVLENRFNEIDRKLDSHSAALEEITKLVEKSISVVEKTRKQMNKRFDEVMKSIQDAKVSPIISKINNFARYFDTEKERIRGLKLNDYILKLEEPNGILLHFKESRTPTDDSLQAPLFSIIEEGYAVPKSIDDELAFKVLYALLYGTQTYVSVMFFLLEQYSFLANHYYEKGYLEKYDEYFNSLNNVFLDFKSSLVGTGTSNNEGLLDRVLQVLMTVKNSEFLGLEKNGVDEMLNEKINLFNKIKEEIEGKQKMTLSETPENFAQISFDKDITTPIGDWRDGREVRYAVQYASETLFSKISHWSDPVSVREKACPTLRMPVDQTRRNVLVFRKFDSSKPQLVGEITPYLSNFIDIDRDLYNAASNPDSAVGFKEFTKLNYDGANIRATFDHGRTVFHAAAKSGNDKIMFGLTFLAKSTELNQPDKKGYTPIHVAADSGNAGIVNLLIQRGVSINSKTYHFLQTPLHLAAQRGFVTTFQRLMESPEININERDKDGFTPLHYAIRGGERILEAFLNQISIDVNAKSNTGLTPFHLAIIKNDWPVASTLLGSKKVDINAVDENNITALHYAAILGYLETTKQLINLKEINANVVSSPGLLSALHYAILYKHDDVASFLMRSSNVNVNLKALGGITPLHLAVIQGRKQILSLMFDIGVNIEQKTDEKYTPLHLAAMSKYPELIQILLDQGSNFEAKTNSGATPLHLATFKGKSQAALILLNNEVNWRDTDENGQMPIHGAAMTGLLDVAQAIISIDATVVDIEDKNSDTPLNLAAQNSHIDVIKYFIDQGADINTRNKKGLAPLLAFSKKGNLDMVKYLFDKNANVYIADNDGMNFFYYAVQNGHLNIVKYAMSEKDKFEWSNTDNNRRDECPNEECAISHFAVCDAVQFDRIEIVKYFVGTLGNFAICGPLHQAARYGHLDIVKYLVEEEFLSVDGSKTDTPLCYASENGHFTVVQYLVSNGAKVNHDCGNGMTAIDKAITKNHLQVVQFLAANGVDFRRKNSRGTTPFLTAVAENALHIAEYLIREKRQDININEQNVDKDTALHLAVYYKNLQMIKLLIKYGIDVTIRNAYDKTALDIAIDAKFSNIVEYLKTKSGKFRR
modifications: 125I label (chloramine T procedure) in the binding and immunoprecipitation assays; coupled to Sepharose in the affinity chromatography
[1]
  Kd: 0.28 nM
[2]
  Kd: 0.16 nM
